Data published in US20100151486A1, “OSTEOPONTIN FUNCTIONAL EPITOPES, MONOCLONAL ANTIBODIES AGAINST THE EPITOPES AND USES THEREOF” (SHANGHAI NATIONAL ENGINEERING RESEARCH CENTER OF A, priority 2007, published 2010).

B1: c1A12: chimeric anti-hOPN mAb between human and murine; VH SEQ ID NO: 4, VL SEQ ID NO: 6, human constant region (antibody, V domains shown)
VH: QVQLEQSGPELVKPGASVKMSCKSSGYTFTTYVMHWVKQKPGQGLEWIGYINPYNDGSKYNEKFKGKATLTSDKSSNTAYMELSSLTSEDSAVYYCASHYGGSPAYWGQGTLVTVSA
VL: DILMTQTPLSLPVSLGDQASISCRSSQSLVHSNGNTYLHWYLQKPGQSPKLLIYKVSNRFSGVPDRFSGSGSGTDFTLKISRVEAEDLGVYFCSQSTHVPWTFGGGTKLEIKR
modifications: human constant regions; amino acid sequence of the heavy chain variable region in 1A12; amino acid sequence of the light chain variable region in 1A12
B2: humanized anti-hOPN antibody h1A12 (h1A12Hb/h1A12Lb) (antibody, human IgG1, kappa, V domains shown)
VH: QVQLVQSGAEVKKPGASVKVSCKSSGYTFTTYVMHWVKQAPGQGLEWIGYINPYNDGSKYNEKFKGRVTITSDKSASTAYMELSSLRSEDTAVYYCASHYGGSPAYWGQGTLVTVSS
VL: DVLMTQSPLSLPVTLGQPASISCRSSQSLVHSNGNTYLHWFQQRPGQSPKLLIYKVSNRFSGVPDRFSGSGSGTDFTLKISRVEAEDVGVYYCSQSTHVPWTFGGGTKVEIKR
notes: Tested as COS-1 supernatant in the ELISA; also called humanized antibody 1A12
B3: h1A12: humanized anti-hOPN mAb; VH SEQ ID NO: 19, VL SEQ ID NO: 21, human constant region (antibody, V domains shown)
VH: B2 VH
VL: B2 VL
modifications: human constant regions; amino acid sequence of the VH in humanized anti-OPN antibody H1A12; amino acid sequence of the VL in humanized anti-OPN antibody H1A12

Key:
[1] = system: human vascular endothelial cell (HUVEC); assay: HUVEC proliferation by 3H-TdR incorporation; type: cell-based; settings: M200+1% BSA+OPN+antibody; 24 hours
Method: HUVEC cell proliferation was measured by the ^3H-TdR incorporation method to determine the protective effect of OPN on cell survival and the inhibitory effect of the anti-OPN antibodies on the OPN protection. Each well of a 96-well plate was inoculated with 2×10^4 HUVECs and cultured in a complete medium for 24 hours. The cells were then treated as following for 24 hours: […]
iv. M200+1% BSA+OPN+murine anti-OPN antibody 1A12 v. M200+1% , BSA+OPN+human-murine chimeric anti-OPN antibody c1A12 vi. M200+1% BSA+OPN+humanized anti-OPN antibody h1A12 vii. M200+1% BSA+OPN+irrelevant antibody
24 hours later, 1 uCi/well ^3H-thymidine was added and, after being incubated at 37° C. for 6 hours, washed once with PBS. The plate was treated with ice-cold 10% trichloroacetic acid/H2O at 4° C. for 10 min, and then washed for two times with, ice-cold ddH2O. Cytolysis was conducted by adding into each well 0.1 ml of 0.5 N NaOH, 0.5% SDS at room temperature for 10 min. After adding 0.2 ml of 0.5 N HCl and mixing, the cells were collected using a multiple cell collector.

[2] = system: MDA-MB-435s cells; assay: Cell adhesion assay on hOPN-coated plate; type: cell-based; settings: antibody 25 μg/ml; plate coated with 10 μg/ml hOPN; 2 hrs
Method: MDA-MB-435s was purchased from the Institute of Cell Biology of Chinese Academy of Sciences (Shanghai, China), and 23C3D3 was used as the irrelevant antibody.
A 96-well plate (Greiner) was coated with 10 μg/ml hOPN (prepared in Example 3) or BSA (SIGMA) at 4° C. overnight, and was then blocked with 1% BSA/PBS at 37° C. for 1 hour to block any non-specific binding sites. The MDA-MB-435s cells were detached using 0.2% EDTA and then re-suspended in 0.25% BSA/DMEM at the concentration of 5×10^5 cells/ml. To each well, 100 μl (5×10^4) MDA-MB-435s cells were added in the presence of various anti-OPN antibodies (25 μg/ml) murine anti-human OPN antibody 1A12, the human-murine chimeric antibody c 1A12 or the humanized antibody h1A12 as treatment groups and the irrelevant antibody 23C3 as control (25 μg/ml). After incubation at 37° C. for 2 hrs, the medium was removed and washed twice with PBS gently. The adherent cells were fixed in 1% formaldehyde at 4° C. for 10 minutes, stained with 0.5% crystal violet after washed with PBS and lysed with 2% Triton X-100 (50 μl). The absorbance was measured at 595 nm.

[3] = system: MDA-MB-435s cells; assay: Scratch wound healing assay; type: cell-based; settings: antibody 25 μg/ml; 24 hours
Method: The MDA-MB-435s cells cultured in a 12-wells plate to almost confluent (90%) washed with PBS and starved overnight with serum-free DMEM. Scratches were made on the cell monolayer using a 10 μl pipette, and PBS was added to wash away the floating cells. The test groups were treated with 25 μg/ml of the murine anti-human OPN antibody 1A12, the human-murine chimeric antibody c1A12 and the humanized antibody h1A12, and the control group, 25 μg/ml of the irrelevant antibody. The cells were incubated in an incubator at 37° C. for 24 hours. The result was expressed as the number of the cells that cross the base line.

[4] = system: MDA-MB-435s cells; assay: Cell invasion assay (Transwell, Matrigel); type: cell-based; settings: antibody 25 μg/ml; in the presence of hOPN; 24 hours
Method: The assay of cell invasion was carried out using the Transwell system (Corning) with the pore size of […]. The basement membrane of the upper chamber was coated with the artificial matrix gel (Matrigel). After being dried in a flame hood, the matrigel was hydrated with DMEM at 37° C. for 1 hour. MDA-MB-435s cells were detached using 0.2% EDTA and suspended in 0.25% BSA/DMEM at the concentration of 5×10^5 cells/ml. 100 μl of the obtained cell suspension as well as the following 25 μg/nil of antibodies were respectively added into the upper chamber of each well: 1A12 (murine anti-human OPN antibody), c1A12 (human-mouse chimeric antibody), h1A12 (humanized antibody), and 23C3 (irrelevant antibody control). To lower chamber, 0.25% of BSA/DMEM (with or without OPN) was added. The system was then incubated in incubator at 37° C. for 24 hours. After that, the cells remaining in the upper chamber was wiped away using a cotton swab, and the cells penetrate through the basement membrane into the lower chamber were washed with PBS, fixed with 1% formaldehyde, and then stained with 0.5% crystal violet. The cells were counted in the field at 200× magnification under a microscope.

[5] = system: rabbit cornea; assay: OPN-induced rabbit corneal neovascularization; type: in vivo; settings: pellet with 200 ng hOPN and 1 μg antibody; for area of neovascularization / length of the newly generated blood vessels: relative to irrelevant antibody group, P<0,01
Method: The Hydron powder was dissolved in anhydrous ethanol under sterile condition to the final concentration of 12% (w/v), and dissolved with agitation under 37° C. to formulate the 12% Hydron cast solution, which was then stored at room temperature. A quota of sucralfate powder formulated in sterile Milli Q water under sterile conditions as a suspension with the final concentration of 100 μg/μl, which was stored at 4° C., and vortexed to homogeneous intermediately before use. Sustained-release pellets were prepared to each containing 200 ng hOPN and 50 μg sucralfate and, for the antibody groups, 1 μg anti-OPN antibodies, and for the control, the irrelevant antibody. The 12% Flydron east solution and the hOPN-sucralfate-PBS blend were mixed as the ratio of 1:1 (volume ratio), vortexed for 1 min. Then 5 μl mixed Hydron-sucralfate-hOPN solution was added onto a sterilized Parafilm surface, dried for about 30 min on a super-clean bench for a complete polymerization. The polymers were then shaped into uniform circular granules with a 2 mm diameter using an eye tweezers. The granules were stored at −20′C. Animals were grouped in the same way as in Experiment II-3, each group consisting of four eyes.
The rabbit was anesthetized at ear edge vein with 3% sodium pentobarbital (1 ml/kg body weight) and on both corneal surfaces with 1% tetracaine. The thickness of the cornea was measured using an ultrasonic cornea thickness gauge. A 3 mm half-depth incision was made at the center of the cornea using an ophthalmic knife, and an undermining tunnel toward the 12 o'clock or 3 o'clock position on the corneoscleral margin was made using a 2 mm-wide scleral tunnel knife, whereby the tunnel lied within the corneal layer with the top of the tunnel about 1 mm distant from the limbus corneae. The Hydron/sucralfate sustained-release pellet was implanted into the top of tunnel using micro-tweezers. The cuts were treated with chlortetracycline eye ointment after the surgery. From Day 1 after the surgery, the double-blinded observer observed the rabbit conical neovascularization under the slit-lamp each day, until the Day 10, The length (VL) and the vascular clock angle (CN, 30°=1CN) of the longest vessel were measured, and the area of neovascularization was calculated according to the following formula:
Area (mm^2)=0.2×π×VL (mm)×CN (mm)

[6] = system: MDA-MB-435s cells; assay: Clone formation on soft agar assay; type: cell-based; settings: antibody 25 μg/ml every other day; 3 weeks
Method: The assay of clone formation on soft agar was conducted using a double-layer soft agar system. 2.5% melted agar was mixed the DMEM medium pre-warmed at 37° C. to formulate a 0.5% agar solution, which was then diluted with DMEM to a 0.3% agar solution. To each well of a 24-well plate was added 500 μl of a 0.5% agar solution, which was allowed to gel at 4° C., and then kept warm in an incubator at 37°C. The MDA-MB-435s cells were detached using 0.2% .EDTA and suspended in the 0.3% agar solution at the concentration of 5×10^3 cells/ml. 500 μl of the cell suspension was added each well and left to gel. From the second day, the cells were respectively treated with 1A12, c1A12, h1A12 or the irrelevant antibody (23C3D3) (25 μg/ml) every other day. After 3 weeks, the colony formation ability was evaluated by measuring the size of colonies containing more than 10 cells.

[7] = system: HUVECs; assay: Formation of capillary-like structure in HUVECs on matrigel; type: cell-based, human
Method: HUVECs were cultured in the M200 medium containing LCGS to 80% confluence. The matrigel stored at −20° C. was took out the day before experiment and naturally thawed at 4° C. for 3 to 12 hours. To each well of a 96-welt plate was added […] using a pre-cooled pipet with carefully removing the bubbles, wherein the whole procedure was carried on ice. The loaded plate was incubated at 37° C. for 1 hour to gel the matrigel. To each well, 100 μl HUVECs (2×10^4/well) was gently added onto the surface of matrigel. To the treatment groups were further added the anti-hOPN antibodies 1A12, c1A12 and h1A12. The plate was incubated at 37° C. for […], and the formation of the capillary-like structure was observed 6 hours after.

[8] = biological target: T1, human osteopontin (human OPN protein) (human, UniProt P10451 17-314, limits assumed); assay: ELISA, plate coated with OPN 2 ug/ml, COS-1 supernatant, HRP-rabbit anti-human IgG
T1 construct: The isoform follows from the 963 bp PCR fragment and is not otherwise stated; also called hOPN
T1 sequence (P10451 17-314 limits assumed): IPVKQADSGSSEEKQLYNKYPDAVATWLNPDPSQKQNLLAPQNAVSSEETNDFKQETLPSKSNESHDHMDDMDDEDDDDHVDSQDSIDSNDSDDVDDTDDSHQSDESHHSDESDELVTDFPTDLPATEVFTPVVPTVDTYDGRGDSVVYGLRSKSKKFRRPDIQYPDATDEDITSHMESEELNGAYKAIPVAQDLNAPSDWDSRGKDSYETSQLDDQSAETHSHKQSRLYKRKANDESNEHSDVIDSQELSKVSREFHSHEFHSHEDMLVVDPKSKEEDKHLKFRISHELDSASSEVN
Method: An ELISA plate was coated with 2 ug/ml OPN. The binding activity of the humanized antibody obtained from the transfection was detected by ELISA. […] The amino acid sequences of the h1A12HBb's and the h1A12Lb's variable regions were shown in FIG. 4, SEQ ID NO: 18 and SEQ ID NO: 19 show the nucleotide sequence and the amino acid sequence of h1A12Hb's variable region respectively. SEQ ID NO: 20 and SEQ ID NO: 21 show the nucleotide sequence and the amino acid sequence of h1A12Lb's variable region respectively. The genes of the humanized antibody's VH and VL (h1A12VHb/h1A12VLb) were synthesized respectively. […] Then, expression vectors of the light and the heavy chain were used to co-transfect the COS-1 cells. The antibody's antigen-binding activity was determined by ELISA. Specifically, an ELISA plate was coated with OPN protein (2 ug/ml) coated at 4° C. overnight, and was blocked with 2% BSA-PBS for 2 h at 37° C. […] HRP-rabbit anti-human IgG was added into the plate for binding reaction (incubated at 37° C. for 1 h).

Molecule | 3H-TdR incorporation relative to the OPN group [1] | blocking of the binding between MDA-MB-435s cells and hOPN [2] | inhibition of the reparation of the scratches and damages [3] | blocking of invasion of the basement membrane by MDA-MB-435s [4] | corneal neovascularization relative to the OPN group [5] | area of neovascularization [5] | length of the newly generated blood vessels [5] | inhibition of clone size formed by MDA-MB-435s cells on soft agar [6] | potency of forming the capillary-like structure in HUVECs [7] | binding result [8]
B1 | significantly lower | effectively block | effectively inhibit | effectively block | significantly reduced | significantly shrunk | significantly reduced | no significant differences | reduce | 
B2 |  |  |  |  |  |  |  |  |  | binds
B3 | significantly lower | effectively block | effectively inhibit | effectively block | significantly reduced | significantly shrunk | significantly reduced | no significant differences | reduce | 
